The source of these data is the RNAGym collection of RNA variant scans (doi:10.7554/elife.90254).

The labels stand for the following.
B1: OR4K15 (parent)
chain: GUUAACGGUCAUAGGCCAUGGAAACUAGGAGCACCAUUUCGCUGCCAGUGAAGAAAUGAACAAAGAAAAUCUGGGCCAGGCAGGCAUCAAAAGAAAUAGUCUUGCGCUCAACCAGAAAGUCUGUAAUCAUUUUAAGGGUA

Variants of B1 are the subject of the data set. Briefly: self-cleavage, relative activity (ratio to wild type); higher = more cleavage; in vitro, sequencing; the parent is a self-cleaving ribozyme.
Take C17U U108C: the self-cleavage is 0.

With C16A G83U, the self-cleavage stood at 0.41. To A18U A30G belongs 1.39; to A18G C101U, 0.85.

For C16U A111G, the self-cleavage was 0.05. Take U19C C112A: the self-cleavage worked out at 0.02. With A18U U19A, the self-cleavage was 1.53. With A18U U19C, the self-cleavage came to 0.12.

Turning to A18G A23U, the self-cleavage came out at 1.88. As for A18U U37C, the self-cleavage was 0.8.

In the case of U19C A134G, the self-cleavage was found to be 1.62.

With U19C A52G, the self-cleavage came to 1.35. On to A18C A111G, for which the self-cleavage is 0.02.

As for A18U U130C, the self-cleavage turned out to be 1.37. For C16U G137A, the self-cleavage worked out at 0.85. For A18U A62G, the self-cleavage was found to be 1.37. Regarding A18U A62C, the self-cleavage was 0.88. Consider A18U A62U, for which the self-cleavage was determined as 1.56. Take U19A A86U: the self-cleavage amounted to 1.87. As to A18G A117G, the self-cleavage was determined as 0.59. On to C16U U39G, for which the self-cleavage is 1.27. As to U19A A66G, the self-cleavage worked out at 1.27. With U19A A66U, the self-cleavage is 1.07. On to U19A A89G, for which the self-cleavage is 0.78.

Turning to A18G A94U, the self-cleavage is 1.4. On to C16G A95G, for which the self-cleavage came to 1.06. In the case of C16U U38C, the self-cleavage was determined as 0.76. On to A18U U131C, for which the self-cleavage was 0.74.

As to A18G U102C, the self-cleavage amounted to 1.64. The same measure for A18G U102A: 1.13; for U19C A23G: 0.88. Take U19C A116G: the self-cleavage amounted to 0.11.

Turning to U19C A116U, the self-cleavage stood at 0.3. A18G A90G: the self-cleavage was found to be 1.36. The same measure for A18G A90U: 2.38; for A18U G28A: 1.78.

Take U19C A36G: the self-cleavage was 2.03.

As for U19C A36U, the self-cleavage amounted to 1.76. To U19C A56G belongs 1.29; to U19C G115A, 0.03. With U19C A30U, the self-cleavage is 1.02. For A18G A68G, the self-cleavage amounted to 1.16. On to A18G A56G, for which the self-cleavage was found to be 1.27.

On to U19A C25U, for which the self-cleavage amounted to 1.86. Turning to A18U A59U, the self-cleavage was 0.69.

Take A18U A59G: the self-cleavage was 1.2. For U19A C35A, the self-cleavage amounted to 0.65.

Consider U19C A125G, for which the self-cleavage was 0.61. Consider U19C A91G, for which the self-cleavage turned out to be 1.09.

As to U19C A111U, the self-cleavage was 0.07. The same measure for A18G A69G: 1.9. Consider A18G A63G, for which the self-cleavage stood at 1.17. As for C17U A110G, the self-cleavage came to 0.05. To G15U G136A belongs 2.24. On to U19C C88A, for which the self-cleavage was determined as 2.03. Regarding C16U U57C, the self-cleavage was determined as 1.14. With U19A U26A, the self-cleavage worked out at 1.58.

On to A18G U127A, for which the self-cleavage was found to be 1.64. In the case of A18G U127C, the self-cleavage was determined as 1.53.

As to C16A U57G, the self-cleavage was 0.88. On to A18U A47G, for which the self-cleavage is 1.05. With C16U U120C, the self-cleavage was found to be 1.42. With U19C C109U, the self-cleavage amounted to 0.63. The same measure for U19A A111G: 0.02. Turning to U19A A111C, the self-cleavage came out at 0.01. C17U U124A: the self-cleavage turned out to be 1.1.

With A18C U127C, the self-cleavage stood at 0.63. The same measure for G15U A69G: 1.46; for U19C G48U: 2.78. The same measure for A18G A129G: 1.25. For the variant C16U A94U, the self-cleavage worked out at 1.89.

As to C17U U38A, the self-cleavage amounted to 1.03.

With A18G A110U, the self-cleavage was found to be 1.32. To C16U A140G belongs 1.64; to G15U, 0.69; to A18G A36G, 1.4. Regarding C16U A22C, the self-cleavage came out at 1.53. C16U A22U: the self-cleavage came out at 1.32.

With U19A U57C, the self-cleavage is 0.67. In the case of C17U A23G, the self-cleavage was found to be 1.37. In the case of A18U U49G, the self-cleavage came to 1.01. Take A18G U26A: the self-cleavage came to 1.1.

A18U A69U: the self-cleavage worked out at 1.37.

Turning to A18U A69G, the self-cleavage is 1.92.

For C17U A129G, the self-cleavage is 0.43. Turning to C17U A30G, the self-cleavage is 1.03.

Consider U19A A78C, for which the self-cleavage stood at 0.29. For U19A A78U, the self-cleavage is 0.35.

As for C16U A118G, the self-cleavage was found to be 1.16. For the variant U19C C113A, the self-cleavage stood at 0.

Take C16A U102C: the self-cleavage was determined as 1.49.

Regarding A18U U103C, the self-cleavage came out at 1.29. Consider A18G C105U, for which the self-cleavage was determined as 0.29. In the case of A18G A55G, the self-cleavage was found to be 1.07. Consider U19A U108C, for which the self-cleavage came out at 0.03.

Turning to A18G U132C, the self-cleavage amounted to 0.77. Take U19C A129C: the self-cleavage was 1.72. To A18U U38C belongs 1.28; to U19C A51U, 1. Regarding C17U A114G, the self-cleavage turned out to be 0.54. Consider A18U A63G, for which the self-cleavage came to 0.84. To C17U U43A belongs 1.18; to U19C G28A, 1.41. To A18C A129G belongs 0.75. In the case of A18U G79A, the self-cleavage is 0.05. To A18U U139C belongs 1.45; to A18G A118U, 0.64; to C16U A114G, 0.2. With A18U A36G, the self-cleavage came out at 1.65.

Regarding U19A U37C, the self-cleavage was 0.9. In the case of C17U U132C, the self-cleavage is 1.02. Turning to A18G U103G, the self-cleavage worked out at 0.05.

For the variant A18G U103A, the self-cleavage came out at 1.13.

Take A18G A33U: the self-cleavage was 1.92.

With U19A A134U, the self-cleavage is 0.89. For C16U A78G, the self-cleavage is 0.62.

Take U19A A116G: the self-cleavage is 1.24. For the variant C16U A54G, the self-cleavage stood at 0.87. For the variant U19A A96G, the self-cleavage stood at 1.64.

For C17A U103C, the self-cleavage was determined as 1.08.

With U19C A62U, the self-cleavage came to 1.48. Regarding U19C A63G, the self-cleavage worked out at 0.89. Regarding C17A A59U, the self-cleavage was 1.14. To C16U G73A belongs 0.15. For the variant C17U A135G, the self-cleavage stood at 1.05. In the case of A18G U19A, the self-cleavage is 1.57. Consider A18G U19C, for which the self-cleavage is 1.06. As to A18G A89G, the self-cleavage worked out at 2.05. Take U19C A95G: the self-cleavage is 1.58.

In the case of A18U A92G, the self-cleavage was determined as 1.04. Turning to C16A U38C, the self-cleavage was 0.92. As to C16U U72A, the self-cleavage came to 0.53. Take A18U A27C: the self-cleavage was found to be 1.5. On to A18G A86C, for which the self-cleavage amounted to 1.68. As for C16U U103C, the self-cleavage worked out at 0.77. Take A18C U43C: the self-cleavage amounted to 1.44. For the variant C17U A18U, the self-cleavage is 1.26. A18C A47G: the self-cleavage amounted to 0.59. Consider C16U A110U, for which the self-cleavage came to 0.72. Turning to A18G A24U, the self-cleavage was found to be 1.6.

Turning to A18G A24G, the self-cleavage is 1.

For A18G G50A, the self-cleavage turned out to be 0.74. Regarding U19C A55G, the self-cleavage was 1.17.

As for C17U A47U, the self-cleavage was 1.43. To A18U C42U belongs 1.18; to U19A A33C, 1.31.

Consider U19C G50A, for which the self-cleavage is 1.38.

For the variant U19C G75U, the self-cleavage was determined as 0.08. C16G A24G: the self-cleavage was found to be 0.51. Regarding C17U A118G, the self-cleavage turned out to be 1.1.

Turning to C16G A55G, the self-cleavage was determined as 0.86. Regarding U19A A64G, the self-cleavage was found to be 1.03. Consider A18U A96C, for which the self-cleavage is 1.02. The same measure for A18G A59U: 1.65; for A18G A59C: 1.7; for A18G A59G: 1.19. Regarding U19A A24G, the self-cleavage turned out to be 0.29. To A18G U49A belongs 1.54; to U19C A82G, 0.61; to A18U U87C, 1.41.

In the case of A18U U87A, the self-cleavage is 1.04.

Turning to A18C A68U, the self-cleavage came to 1.04. The same measure for C16U A30G: 1.27. The same measure for C16U A30U: 1. The same measure for A18G A92G: 1.3; for A18G A91U: 1.94. On to A18G G79A, for which the self-cleavage is 0.24.
